Results as given in PMC7717906 (eLife, 2020).

Molecular target: the molecule itself
Experiment: native gel or EMSA

B1: MoOsm1-GFP (enzyme)
chain: MAEFVRAQIFGTTFEITSRYSDLQPVGMGAFGLVCSARDQLTNQNVAIKKIMKPFSTPVLAKRTYRELKLLKHLKHENVISLSDIFISPLEDIYFVTELLGTDLHRLLTSRPLEKQFIQYFLYQIMRGLKYVHSAGVVHRDLKPSNILVNENCDLKICDFGLARIQDPQMTGYVSTRYYRAPEIMLTWQKYDVEVDIWSAGCIFAEMLEGKPLFPGKDHVNQFSIITELLGTPPDDVINTIASENTLRFVKSLPKRERQPLKNKFKNADPSAIDLLERMLVFDPKKRITATEALAHEYLTPYHDPTDEPIAEEKFDWSFNDADLPVDTWKIMMYSEILDYHNAEAGMQQMDDQFTGQ
stoichiometry N: 2
